PMC6330308, “Light-Induced Thiol Oxidation of Recoverin Affects Rhodopsin Desensitization” (Frontiers in Molecular Neuroscience, 2018)

T1: GRK1 (rhodopsin kinase) (bovine (endogenous in ROS), UniProt P28327 1-561)
T1 sequence (looked up): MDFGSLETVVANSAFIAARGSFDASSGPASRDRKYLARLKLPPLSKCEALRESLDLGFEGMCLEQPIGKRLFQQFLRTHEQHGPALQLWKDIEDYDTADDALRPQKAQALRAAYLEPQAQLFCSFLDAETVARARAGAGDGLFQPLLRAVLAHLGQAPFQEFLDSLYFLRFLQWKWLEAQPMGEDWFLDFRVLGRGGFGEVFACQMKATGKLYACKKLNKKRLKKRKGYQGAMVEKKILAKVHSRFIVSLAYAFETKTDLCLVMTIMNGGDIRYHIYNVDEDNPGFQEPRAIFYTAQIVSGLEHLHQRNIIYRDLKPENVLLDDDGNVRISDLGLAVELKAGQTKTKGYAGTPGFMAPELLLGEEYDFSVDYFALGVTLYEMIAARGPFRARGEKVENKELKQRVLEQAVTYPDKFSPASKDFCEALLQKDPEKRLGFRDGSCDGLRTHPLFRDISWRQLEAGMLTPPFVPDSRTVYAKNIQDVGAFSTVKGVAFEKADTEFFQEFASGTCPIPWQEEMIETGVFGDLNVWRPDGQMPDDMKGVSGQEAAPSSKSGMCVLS

T2: Oxidized monomer of recombinant wild type recoverin (bovine, UniProt P21457 2-202, N-terminal myristoyl group; C39 thiol oxidized (sulfenic/sulfinic acid; Figure 9 legend: C39 converted into sulfinic acid))
T2 construct: recoverin, bovine, recombinant wild type, myristoylated, monomer with oxidized C39; also called OmRec; thiol-oxidized monomer of recoverin; source: prepared from RmRec by incubation with 0.005% H2O2 at 30°C for 5 h, separated by gel-filtration (Superdex 75)
T2 sequence: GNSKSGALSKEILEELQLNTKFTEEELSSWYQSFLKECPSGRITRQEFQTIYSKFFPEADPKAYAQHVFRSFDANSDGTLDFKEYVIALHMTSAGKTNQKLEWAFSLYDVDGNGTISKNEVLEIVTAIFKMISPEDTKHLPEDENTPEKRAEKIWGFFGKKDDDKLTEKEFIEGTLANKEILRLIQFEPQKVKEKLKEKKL

T3: Recombinant myristoylated bovine recoverin (reduced monomer) (bovine, UniProt P21457 2-202, N-terminal myristoyl group (degree of myristoylation more than 95%))
T3 construct: recoverin, bovine, recombinant wild type, myristoylated, C39 thiol reduced; Myristoylation implies that the initiator Met is removed and Gly2 carries the myristoyl group (surmised); also called RmRec; reduced monomer of recombinant wild type recoverin; source: recombinant, prepared according to previously published procedure (Zernii et al., 2011)
T3 sequence: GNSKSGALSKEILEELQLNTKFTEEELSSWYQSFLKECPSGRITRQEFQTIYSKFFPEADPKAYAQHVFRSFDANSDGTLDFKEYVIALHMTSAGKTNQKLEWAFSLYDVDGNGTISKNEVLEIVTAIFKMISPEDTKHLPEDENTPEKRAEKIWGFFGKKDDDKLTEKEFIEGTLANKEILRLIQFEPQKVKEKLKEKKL

B1: Recoverin mutant C39D (natural protein, bovine)
chain: GNSKSGALSKEILEELQLNTKFTEEELSSWYQSFLKEDPSGRITRQEFQTIYSKFFPEADPKAYAQHVFRSFDANSDGTLDFKEYVIALHMTSAGKTNQKLEWAFSLYDVDGNGTISKNEVLEIVTAIFKMISPEDTKHLPEDENTPEKRAEKIWGFFGKKDDDKLTEKEFIEGTLANKEILRLIQFEPQKVKEKLKEKKL
modifications: N-terminal myristoyl group (degree of myristoylation more than 95%)

Assays:
[1] = molecular target: N-terminal domain of GRK1 (amino acids Met1-Gly183) fused with glutathione-S-transferase (UniProt P28327); experiment: SPR; GST-fused N-GRK1 or 1-25GRK1 immobilised by amine coupling on ProteOn GLH chip; recoverin forms 1-40 uM as analyte; 25°C; 10 mM HEPES, 150 mM NaCl, 0.05% TWEEN 20, pH 7.4, 1 mM CaCl2, 2 mM MgCl2; global fit to heterogeneous ligand model
[2] = molecular target: N-terminal fragment of GRK1 (amino acids M1-S25) fused with glutathione-S-transferase (UniProt P28327); experiment: as above
[3] = molecular target: GRK1 (rhodopsin kinase) (bovine (endogenous in ROS)) (UniProt P28327)
[4] = molecular target: T1, GRK1 (rhodopsin kinase); experiment: cell-based or functional assay
[5] = molecular target: T2, Oxidized monomer of recombinant wild …; experiment: SPR; GST-fused N-GRK1 or 1-25GRK1 immobilised by amine coupling on ProteOn GLH chip; recoverin forms 1-40 uM as analyte; 25°C; 10 mM HEPES, 150 mM NaCl, 0.05% TWEEN 20, pH 7.4, 1 mM CaCl2, 2 mM MgCl2; global fit to heterogeneous ligand model; conditions: both partners purified
[6] = molecular target: B1; experiment: as above; conditions: both partners purified
[7] = molecular target: T3, Recombinant myristoylated bovine …; experiment: as above; conditions: both partners purified

Molecule | Kd [5] [µM] | Kd [6] [µM] | Kd [7] [µM] | other results
Disulfide dimer of recombinant wild type recoverin (from UniProt P21457 2-202) (complex) | – | – | – | Kd [1]: 31.3 µM; Kd [2]: 31.2 µM; inhibition of GRK1 in rhodopsin phosphorylation assay, 20 uM dRec, 0.01 uM free Ca2+ [3]: 40%; inhibition of GRK1 in rhodopsin phosphorylation assay, 20 uM dRec, 200 uM free Ca2+ [3]: 70%
B1 | – | – | – | inhibition of GRK1 in rhodopsin phosphorylation assay, 40 uM C39D, 200 uM free Ca2+; decline of inhibitory efficiency against RmRec [4]: ~2 fold
N-terminal domain of GRK1 (amino acids Met1-Gly183) fused with glutathione-S-transferase (domain or fragment, UniProt P28327 1-183, looked up, GRK1 (rhodopsin kinase), N-terminal domain, amino acids Met1-Gly183; also called N-GRK1; N-terminal domain of rhodopsin kinase; source: obtained according to previously published procedure (Grigoriev et al., 2012)) MDFGSLETVVANSAFIAARGSFDASSGPASRDRKYLARLKLPPLSKCEALRESLDLGFEGMCLEQPIGKRLFQQFLRTHEQHGPALQLWKDIEDYDTADDALRPQKAQALRAAYLEPQAQLFCSFLDAETVARARAGAGDGLFQPLLRAVLAHLGQAPFQEFLDSLYFLRFLQWKWLEAQPMG | 31.3 | 50.2 | 5.35 | –
MDFGSLETVVANSAFIAARGSFDAS (domain or fragment, UniProt P28327 1-25, looked up, GRK1 (rhodopsin kinase), fragment M1-S25; also called 1-25GRK1; 1-25RK; source: obtained according to previously published procedure (Grigoriev et al., 2012)) [N-terminal fragment of GRK1 (amino acids M1-S25) fused with glutathione-S-transferase] | 16 | 31.3 | 10.5 | –
